Patent US20100226910

Target: Amyloid beta1-42 standard (from β-Amyloid1-42 ELISA, Human kit, Sigma BE0200), P05067
Sequence (P05067 whole entry, looked up, tested part not stated): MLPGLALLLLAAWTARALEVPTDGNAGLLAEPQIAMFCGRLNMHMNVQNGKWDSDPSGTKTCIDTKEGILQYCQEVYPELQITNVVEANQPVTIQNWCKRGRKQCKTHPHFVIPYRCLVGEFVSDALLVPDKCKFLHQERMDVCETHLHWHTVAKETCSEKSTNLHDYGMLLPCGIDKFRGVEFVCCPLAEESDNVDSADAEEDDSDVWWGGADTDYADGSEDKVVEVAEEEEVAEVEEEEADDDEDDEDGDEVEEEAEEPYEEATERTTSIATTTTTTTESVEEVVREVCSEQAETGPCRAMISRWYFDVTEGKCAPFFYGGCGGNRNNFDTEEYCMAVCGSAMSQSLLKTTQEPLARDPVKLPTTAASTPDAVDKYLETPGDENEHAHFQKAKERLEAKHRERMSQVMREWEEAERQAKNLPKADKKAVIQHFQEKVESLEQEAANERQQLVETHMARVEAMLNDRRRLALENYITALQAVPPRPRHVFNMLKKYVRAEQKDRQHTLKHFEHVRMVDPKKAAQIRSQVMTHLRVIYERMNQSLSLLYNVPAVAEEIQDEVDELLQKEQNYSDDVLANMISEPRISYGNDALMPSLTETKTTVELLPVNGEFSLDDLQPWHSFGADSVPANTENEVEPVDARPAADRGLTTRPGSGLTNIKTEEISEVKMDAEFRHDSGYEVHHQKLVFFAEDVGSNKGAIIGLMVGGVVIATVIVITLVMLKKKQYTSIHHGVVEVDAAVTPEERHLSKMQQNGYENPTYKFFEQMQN

B1: Tissue kallikrein (SEQ ID NO:1) (protein)
chain: IIGGRECEKDSHPWQVAIYHYSSFQCGGVLVDPKWVLTAAHCKNDNYQVWLGRHNLFENEVTAQFFGVTADFPHPGFNLSLLKNHTKADGKDYSHDLMLLRLQSPAKITDAVKVLELPTQEPELGSTCQASGWGSIEPGPDDFEFPDEIQCVELTLLQNTFCADAHPDKVTESMLCAGYLPGGKDTCMGDSGGPLICNGMWQGITSWGHTPCGSANKPSIYTKLIFYLDWINDTITENP
% Cleavage (ELISA of remaining Aβ1-42), KLK1 1 pg/mL, 3 hrs: 0%
% Cleavage (ELISA of remaining Aβ1-42), KLK1 1 pg/mL, 18 hrs: 0%
% Cleavage (ELISA of remaining Aβ1-42), KLK1 10 pg/mL, 3 hrs: 0%
% Cleavage (ELISA of remaining Aβ1-42), KLK1 10 pg/mL, 18 hrs: 15%
% Cleavage (ELISA of remaining Aβ1-42), KLK1 100 pg/mL, 3 hrs: 0%
% Cleavage (ELISA of remaining Aβ1-42), KLK1 100 pg/mL, 18 hrs: 19.5%
% Cleavage (ELISA of remaining Aβ1-42), KLK1 1 ng/mL, 3 hrs: 19.6%
% Cleavage (ELISA of remaining Aβ1-42), KLK1 1 ng/mL, 18 hrs: 50%
% Cleavage (ELISA of remaining Aβ1-42), KLK1 10 ng/mL, 3 hrs: 36.6%
% Cleavage (ELISA of remaining Aβ1-42), KLK1 10 ng/mL, 18 hrs: 88.4%
% Cleavage (ELISA of remaining Aβ1-42), KLK1 100 ng/mL, 3 hrs: 71.7%
% Cleavage (ELISA of remaining Aβ1-42), KLK1 100 ng/mL, 18 hrs: 99.8%
% Cleavage (ELISA of remaining Aβ1-42), KLK1 1 µg/mL, 3 hrs: 92.1%
% Cleavage (ELISA of remaining Aβ1-42), KLK1 1 µg/mL, 18 hrs: 100%
